# ± gives the half width of the 95% confidence interval.
# Experiment: folding stability dG unfold from trypsin proteolysis; higher = more stable
# Outline: (§1)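 How resistant each design was to proteolysis was captured as K50, inferred by Bayesian fitting of sequencing counts. Unfolding free energy was then derived relative to a sequence-predicted unfolded-state K50 and a shared folded-state K50, per protease or combined. Digestion used trypsin and chymotrypsin at 11 threefold-diluted concentrations plus a no-protease condition, on mini-proteins under 80 residues without cysteine in a PA-tagged cDNA display construct. Designs were kept only when AlphaFold2 dimer inter-PAE was above 15.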
row,Sequence,folding stability dG unfold [kcal/mol]
1,SAGGSAGGVEPVVVGRVPVVVRDPATGELREAEILRALPDGTLFIRFPNGERAEIRGAPVLSLASAGGSAGG [r6_433_TrMRF],1.07 ± 0.035
2,SAGKIKIDVMPPGWFLRIKIEHGGKEQERMIPIPGDSVDEIVKEALDEIQQHFPNKPIKVDIEIYPVDDSAG [r5_180_TrROS],1.03 ± 0.2
3,SAGGSAGGSAGGAVTTNKDVPLPGPFSIGTVTVSPPDPATPVVTFNSYEGNGPVTLTVPVSAGGSAGGSAGG [r11_1013_JUSTAS],1.24 ± 0.015
4,SAGGSAGGSKEKTYVIKVTITNENGEEFTLELTVTMTEEEAEELAKKLKELYPNAKVTIEKLPSAGGSAGGS [r12_268_TrROS_Hall],4.16 ± 0.21
5,SAGGSAGGSKNDWGEFDAEVPFFKEKKKVKIYKNPDNPNIYYIEFPKTGKIFKVYPNGEIKEESAGGSAGGS [r12_580_TrMRF],1.01 ± 0.062
6,SAGGSKIKELLDAIKKAIEEGKEEVTIEVTLPNGSKIKFYPDGTIEITNKNGEKKTIKIKADDIKPSAGGSA [r2_97_TrROS_Hall],2.29 ± 0.23
7,SMMKVKVRITFEDGEEVEIEIEMSREELKNKIEELIKELAEKEGKEVKEVKIEIVDEKTNETYTFTIKVKSA [r9_1193_TrROS_Hall],4.14 ± 0.19
8,SARPLVVTNPKGSTVRLDPSTGTAEFRNLVTGETVTAKVKPVPNGVLVEVEEGGVKKTFVVPEDGKIVLGSA [r9_239_TrMRF],0.172 ± 0.052
9,SAGGSAGGSAGKPIKLEEVLEKLNPEKIESVFVFPPIPYVVVLLKDSNGNKKIIVVKEDKSAGGSAGGSAGG [r17_374_TrMRF],0.695 ± 0.019
10,SAGGIKIPPGQEIEMPFKVRVGGEPYPFRIEIKILKVNPDNGHFLIKMEIEDPENGQPIAEFTFFIPPSAGG [r13_582_TrROS],2.64 ± 0.25
11,SAGGSGPDVPLEEIARRIAEELGVPILSVDFERDPEAPVVTIRVTFRSPAPGRLEERTVVLPRELLSAGGSA [r2_156_JUSTAS],0.942 ± 0.035
12,SAGGSAGGSAGKPKIKIEEIIEIEVITKKKIPETGKEKETPEKLYIIKVKVENIPPNLKVSAGGSAGGSAGG [r17_530_TrMRF],0.466 ± 0.11
13,SPPNFEVKEVEIPVPWEEIKELLPPGFTDIEPTGDRWTLHFKHPGYFVMIEIQWDPEDNQFPVKISVFKMSA [r9_604_TrROS],2.59 ± 0.11
14,SAGGNFEIWRHPENGILWIEFRIPAGEPLEIPLKFKAPNGKPIKITKFHIWPMNDWWYIKFIIKIPPSAGGS [r16_499_TrROS],3.15 ± 0.12
15,IEEIKNFAKKHGFNVKIEPVKVDSEEEAKEEAEDHEKKNGYPTIIIKNPENGEIVWVIKIRPPPPPPGQPPS [r1_179_TrROS],2.51 ± 0.22
16,SAGGSAGGSEKPEVEKITLEITLTDEDGNKHTIKVELVRNAKTKKYYLRITLEDGSEFVFEIDSAGGSAGGS [r12_286_TrROS_Hall],3.88 ± 0.14

row,Sequence,folding stability dG unfold [kcal/mol]
1,SAGGMSSSSYTYTTPLSSLKAAHPDLSEEELLALAKEAAKAALEAEGVPVSSVTATLAPDGTLTIVDSAGGS [r8_368_JUSTAS],0.862 ± 0.065
2,SAGMTPDTTLPDLVVTIYSPDGTSTTYTFPNVTRVTEVDPETGKLTLYSPEGRTITLTLSPDEKVEIVGSAG [r5_762_JUSTAS],2.45 ± 0.035
3,SAGGSAGGSAGGPKYKIEIEIKKIKVKVEKTVKYDGKTYKEEKEFEVLEIKIKIEPEGESAGGSAGGSAGGS [r10_118_TrROS_Hall],3.19 ± 0.36
4,SAGGKKKKKKKIEKKVKTVTIKIKAKTKEEAKKALEELLKKKGLEVEIVKIEYDPETKEITVTVKVKPSAGG [r13_567_TrROS_Hall],1.92 ± 0.044
5,SAGGMVLFRIRFRTGPDGIVRLDPELLEQAEGADIDEDDPRVALILAEPEFLEKLSPELLEEAEILPSAGGS [r16_328_TrMRF],0.607 ± 0.1
6,SAGGSAMEELKEKVLEAWKKLTPDTPVTIKEINPEKKEITIETTSEEAKEKLKKAAKEMGIKIKIKSAGGSA [r15_196_JUSTAS],0.71 ± 0.27
7,SAGGKPKVYEFEITIEFKTKTKKDKNGKTYKVKKIKIKIKVKVVVDEENKKIYIFDENGKLIAEFELSAGGS [r16_92_TrROS_Hall],3 ± 0.22
8,SAGGMVKLTITITTENETTTYPRVVPEEELEEVKKEAEELAKKLGADPKTVTVSKVERLKEPGGVPVSAGGS [r16_650_JUSTAS],0.694 ± 0.029
9,SAGGSAKEIKPGEKIKVRNKETGKWFEATVTEVKKLENGELYVKVEVTIDGKTYTVTIPLKDIEVVSAGGSA [r15_62_TrROS_Hall],4.3 ± 0.37
10,SAGGSARIEPVGDYLVIEIPFRYPDGMEWYIEIVINPEEGKIPVDQYPPGDGEPVGEKTLPADEVKSAGGSA [r15_671_TrROS],0.507 ± 0.14
11,SAGGSAMKLTAETTDPGSDRFEATIYDPSDSGGDSVVSFESEEELEAFIKNLPSSVASVSLVPTSPSAGGSA [r15_589_JUSTAS],0.983 ± 0.017
12,SAGPTVRIHLPGFEPIRFPPGDELALPFPNGYYLIIRRKPDGEVEVFPMGGEERKLPDADEVEIYMFPASAG [r5_869_TrROS],0.665 ± 0.11
13,SAGGMTVTVKVTEIKKIGDKYEITLKNPDGTPKTVTIDDPEVVKKITPDSEVTVTVNPDGSYTITLESAGGS [r16_2_JUSTAS],3.74 ± 0.28
14,SAGGSAGGGVYLNGLLPGGVALLSAPTASGEYTLILISPDNRALIFSYPADTGTPRVAEIDLPTSAGGSAGG [r6_159_TrMRF],0.577 ± 0.062
15,SAGGSAGGSAGGGSVTLKRPGGSEVTLPDVTADSTITTLPDGTTVVTIPGTGKTYVVPSSAGGSAGGSAGGS [r10_1035_JUSTAS],0.604 ± 0.03

# Experiment: folding stability dG unfold from chymotrypsin proteolysis; higher = more stable
# Outline: as §1
row,Sequence,folding stability dG unfold [kcal/mol]
1,SAGGSAGGVEPVVVGRVPVVVRDPATGELREAEILRALPDGTLFIRFPNGERAEIRGAPVLSLASAGGSAGG [r6_433_TrMRF],1.54 ± 0.096
2,SAGKIKIDVMPPGWFLRIKIEHGGKEQERMIPIPGDSVDEIVKEALDEIQQHFPNKPIKVDIEIYPVDDSAG [r5_180_TrROS],1.29 ± 0.37
3,SAGGSAGGSAGGAVTTNKDVPLPGPFSIGTVTVSPPDPATPVVTFNSYEGNGPVTLTVPVSAGGSAGGSAGG [r11_1013_JUSTAS],0.321 ± 0.11
4,SAGGSAGGSKEKTYVIKVTITNENGEEFTLELTVTMTEEEAEELAKKLKELYPNAKVTIEKLPSAGGSAGGS [r12_268_TrROS_Hall],4.09 ± 0.12
5,SAGGSAGGSKNDWGEFDAEVPFFKEKKKVKIYKNPDNPNIYYIEFPKTGKIFKVYPNGEIKEESAGGSAGGS [r12_580_TrMRF],1.75 ± 0.17
6,SAGGSKIKELLDAIKKAIEEGKEEVTIEVTLPNGSKIKFYPDGTIEITNKNGEKKTIKIKADDIKPSAGGSA [r2_97_TrROS_Hall],1.44 ± 0.1
7,SMMKVKVRITFEDGEEVEIEIEMSREELKNKIEELIKELAEKEGKEVKEVKIEIVDEKTNETYTFTIKVKSA [r9_1193_TrROS_Hall],3.92 ± 0.088
8,SARPLVVTNPKGSTVRLDPSTGTAEFRNLVTGETVTAKVKPVPNGVLVEVEEGGVKKTFVVPEDGKIVLGSA [r9_239_TrMRF],-0.372 ± 0.087
9,SAGGSAGGSAGKPIKLEEVLEKLNPEKIESVFVFPPIPYVVVLLKDSNGNKKIIVVKEDKSAGGSAGGSAGG [r17_374_TrMRF],0.922 ± 0.21
10,SAGGIKIPPGQEIEMPFKVRVGGEPYPFRIEIKILKVNPDNGHFLIKMEIEDPENGQPIAEFTFFIPPSAGG [r13_582_TrROS],4.4 ± 0.23
11,SAGGSGPDVPLEEIARRIAEELGVPILSVDFERDPEAPVVTIRVTFRSPAPGRLEERTVVLPRELLSAGGSA [r2_156_JUSTAS],0.759 ± 0.083
12,SAGGSAGGSAGKPKIKIEEIIEIEVITKKKIPETGKEKETPEKLYIIKVKVENIPPNLKVSAGGSAGGSAGG [r17_530_TrMRF],2.11 ± 0.06
13,SPPNFEVKEVEIPVPWEEIKELLPPGFTDIEPTGDRWTLHFKHPGYFVMIEIQWDPEDNQFPVKISVFKMSA [r9_604_TrROS],3.76 ± 0.054
14,SAGGNFEIWRHPENGILWIEFRIPAGEPLEIPLKFKAPNGKPIKITKFHIWPMNDWWYIKFIIKIPPSAGGS [r16_499_TrROS],2.84 ± 0.06
15,IEEIKNFAKKHGFNVKIEPVKVDSEEEAKEEAEDHEKKNGYPTIIIKNPENGEIVWVIKIRPPPPPPGQPPS [r1_179_TrROS],3.89 ± 0.17

# Reference: the supplement of paper PMC12764529
